B1: aminotransferase ID No. 19: HFB1 aminotransferase encoded by fumI (sequence ID No. 18) (protein, listed as Sphingopyxis sp.)
chain: MANGTRQKDLRERAERVIPGGMYGHESTRLLPPEFPQFFRRALGARIWDADEQPYIDYMCAYGPNLLGYRQSEIEAAADAQRLLGDTMTGPSEIMVNLAEAFVGMVRHADWAMFCKNGSDATSTAMVLARAHTGRKTILCAKGAYHGASPWNTPHTAGILASDRVHVAYYTYNDAQSLSDAFKAHDGDIAAVFATPFRHEVFEDQALAQLEFARTARKCCDETGALLVVDDVRAGFRVARDCSWTHLGIEPDLSCWGKCFANGYPISALLGSNKARDAARDIFVTGSFWFSAVPMAAAIETLRIIRETPYLETLIASGAALRAGLEAQSQRHGLELKQTGPAQMPQIFFADDPDFRIGYAWAAACLKGGVYVHPYHNMFLSAAHTVDDVTETLEATDRAFSAVLRDFASLQPHPILMQLAGA
modifications: Seq ID 19 (FumI)
B2: aminotransferase ID No. 25: HFB1 aminotransferase encoded by sequence ID No. 24 (protein, listed as Caulobacter sp.)
chain: MELSRQRDQALRERAQAVIPGGMYGHESTYLMPEGTPQFFSRGKGARLWDADGNEYVDYMCAYGPNLLGYGFEPVEAAAAAQQARGDTLTGPSEVMVQLAEDFVAQISHADWAMFCKNGTDATSMAMVIARAHTGRKTILCAKGAYHGAAPWCTPILAGTLPEDRAFVVYYDYNDAQSLVDAFEAHQDDVAAIFATPHRHEVFSDQIDPDPEYAASVRALCDKSGALLVVDEVRAGFRIARDCSWAKIGVAPDLSTWGKCFANGYPISAVLGGEKVRSAAKAVYVTGSFWFSATPMAAAVETLKQIRETDYLERINAAGTRLREGLQQQAAHNGFTLRQTGPVSMPQVLFEEDPDFRVGYGWVRECLKRGVYFSPYHNMFLSAAHSEADLAKTLAATGDAFVELRAKLPSLEIHQPLLALRAA
modifications: Seq ID 25

What was measured:
piglets = assay: Feeding test with piglets; format: in vivo, pigs; details: Positive control: 4-5.5 ppm fumonisin B1 in feed, no enzyme
Method: The test was performed in a test stable with 12 stalls for 10 animals each. The stable was equipped with a slatted floor, pan troughs and a computer-controlled feeding system. The automats were arranged along the stall walls. Every day, the stable climate was automatically recorded, and the temperature was set according to the standard recommendations for piglet breeding.
For this test, 120 mixed-sex weaned pigs (age: about 4 weeks, average setting weight: 8.21 kg) were used. Each piglet was earmarked and individually weighed. The 120 piglets were randomly distributed among 12 stalls. All piglets came from the Austrian Breeding Program ÖHYB (=(large white×landrace)×Pietrain).
Immediately upon weaning, the piglets were fed with a starter feed for two days, after this settling-in period the changeover to the test feed took place. Feeding was effected in two phases: Weaning phase days 1-14, breeding phase days 15-42. The test feed was mixed individually per stall via the spotmix feeding installation and allotted in dry form twice a day as a function of the number of piglets, weight development and feed consumption. Water was available ad libitum. The 12 stalls were divided into four different application groups at three repetitions each and received the following admixtures in the above-described feed: […]

[1] = Catalytic activity of HFB1 aminotransferase in E. coli lysate; format: biochemical; details: 25° C.; for degradation of the hydrolyzed fumonisin to 2-keto-HFB1: cosubstrate added (α-keto acid e.g. pyruvic acid, or oxalacetate); for reduction of the hydrolyzed FB1 concentration: no cosubstrate, 50 mM sodium phosphate buffer
Method: Sequences ID Nos. 18 and 24 were cloned using standard procedures and expressed in E. coli under the control of a bacteriophage T7 promoter. The bacterial cells were collected, resuspended in 50 mM sodium phosphate buffer and lyzed under ultrasonic action. Hydrolyzed fumonisin was added, and the samples were incubated at 25° C. Samples were taken at time intervals and analyzed by HPLC-MS/MS. No reduction of the hydrolyzed FB1 concentration was observed. […] This substance is totally harmless for mammals.

[2] = format: biochemical; details: corn mash after carboxylesterase treatment; FIG. 5
Method: Samples of corn mash for the production of bioethanol were taken and incubated at 30 to 65° C. under stirring, the degradation of fumonisin B1 having been investigated after the addition of 770 units of carboxylesterase ID No. 9 per cubic meter of mash under stirring (stirring time in minutes). Samples were inactivated by boiling-up after having been taken and subsequently centrifuged for analysis, and an aliquot of the supernatant was evaporated. The residue was taken up in 200 μl sample buffer containing C^13-labelled internal fumonisin standard, shaken for 1.5 min, centrifuged off, and then subjected to LC-MS-analysis.

Molecule | respiratory problems observed (piglets) | Final weight (average, kg) (piglets; 42 days) [kg] | degradation of the hydrolyzed fumonisin to 2-keto-HFB1 [1] | reduction of the hydrolyzed FB1 concentration [1] | degradation of hydrolyzed fumonisin HFB1 [2]
CCCC[C@@H](C)[C@@H](OC(=O)C[C@@H](CC(=O)O)C(=O)O)[C@H](C[C@@H](C)C[C@H](O)CCCC[C@@H](O)C[C@H](O)[C@H](C)N)OC(=O)C[C@@H](CC(=O)O)C(=O)O [fumonisin B1] | almost half of the animals | 24.77 | – | – | –
B1 | – | – | complete degradation | No reduction | completely degraded
B2 | – | – | complete degradation | No reduction | –

— US8703460B2, “Method for the production of an additive for the enzymatic decomposition of mycotoxins, additive, and use thereof” (Erber Aktiengesellschaft, priority 2008, dated 2014)
